In the supplement of paper PMC10126150:
± gives the standard deviation of the averaged measurements.

Tested on: ATP
Experiment: switch fluorescence ratio, 500 uM ATP over buffer (Cy3 cluster intensity, sum of 5 cycles each) (fold (ratio)); higher = stronger signal-on switching upon ATP binding; sequences stand for … in TCGTCGGCAGCGTCAGATGTGTATAAGAGACAGTTTTTTTTTTTTTTTTTTTTTTTTT…TC
Conditions: aptamer strand: ATP DNA aptamer (quencher-CACCTGGGGGAGTATTGCGGAGGAAGG + anchor), 100 nM annealed; ATP concentration: 500 uM
How it was run: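 The quencher-labelled ATP aptamer, at 100 nM, was annealed to Cy3-labelled switching-strand clusters on a modified Illumina MiSeq flow-cell. The clusters were imaged in selection buffer, then after 15 min with 500 uM ATP at 22 °C, and this buffer/ATP cycle ran five times with NaOH stripping and re-annealing between runs. Per-cluster fluorescence ratios, summed target-cycle over summed buffer-cycle Cy3 intensity, were averaged per switch-domain sequence. Clusters outside 100-1000 RFU were excluded.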
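Further: ATP exposure 15 min at 22 °C before imaging.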

Point of comparison: GGTGGGGTTA, switch fluorescence ratio 0.984 ± 0.038. Against it:
- GGTACAGGAC — within error, 1.06 ± 0.047
- GGTACAGGGC — higher, 1.065 ± 0.0073
- GGTACCACTT — within error, 0.992 ± 0.039
- GGTACGGGCC — within error, 1.011 ± 0.01
- GGTACGTCGG — within error, 0.979 ± 0.048
- GGTACTGGAC — higher, 1.087 ± 0.0021
- GGTAGACTTT — within error, 0.967 ± 0.017
- GGTAGGCGAA — within error, 0.9775 ± 0.0013
- GGTAGGTCGT — within error, 1.02 ± 0.074
- GGTAGGTTGC — within error, 1.03 ± 0.013
- GGTAGTAGAT — within error, 1.01 ± 0.0072
- GGTAGTAGGC — within error, 1.014 ± 0.0019
- GGTAGTAGTG — within error, 1.0054 ± 0.00082
- GGTAGTCGGG — within error, 0.968 ± 0.014
- GGTAGTGCTG — within error, 0.982 ± 0.042
- GGTAGTTGGT — within error, 1.01 ± 0.011
- GGTAGTTTTC — within error, 0.9916 ± 0.0039
- GGTATAATAC — higher, 1.23 ± 0.041
- GGTATAATTG — within error, 1.021 ± 0.0062
- GGTATATAAA — within error, 1.003 ± 0.0029
- GGTATATGTT — within error, 1.01 ± 0.015
- GGTATATTCC — within error, 1.02 ± 0.024
- GGTATCGAGG — within error, 1.01 ± 0.015
- GGTATGCTCT — within error, 0.998 ± 0.065
- GGTATGGTCT — within error, 1.02 ± 0.022
- GGTATGTTGG — within error, 0.996 ± 0.011
- GGTATTAGGA — within error, 0.9669 ± 0.0076
- GGTATTCCGT — within error, 1.03 ± 0.045
- GGTATTCGAA — higher, 1.054 ± 0.0022
- GGTATTGAGT — within error, 0.992 ± 0.03
- GGTATTGCGT — within error, 0.977 ± 0.042
- GGTATTGGGA — within error, 0.989 ± 0.018
- GGTATTGGTT — within error, 0.987 ± 0.048
- GGTATTTGGT — within error, 0.988 ± 0.03
- GGTATTTTGG — within error, 0.953 ± 0.035
- GGTCAAGGGG — within error, 0.9826 ± 0.0088
- GGTCAGGTGA — within error, 0.972 ± 0.073
- GGTCATGGCG — within error, 1.02 ± 0.098
- GGTCATTGTT — within error, 0.9635 ± 0.0031
- GGTCCGGAGC — higher, 1.1577 ± 0.00066
- GGTCCGTCGA — within error, 1.02 ± 0.064
- GGTCCTCGTG — within error, 0.998 ± 0.027
- GGTCCTGGGC — within error, 1.01 ± 0.013
- GGTCGCAGTC — within error, 0.9649 ± 0.0016
- GGTCGCCGGG — within error, 0.976 ± 0.081
- GGTCGGGGAG — within error, 0.9987 ± 0.0028
- GGTCGGGGGA — within error, 0.99 ± 0.061
- GGTCGGGTAC — within error, 0.9676 ± 0.0094
- GGTCGGTATT — within error, 1.08 ± 0.12
- GGTCGGTGCG — within error, 0.9914 ± 0.0098
- GGTCGGTTGG — within error, 0.97591 ± 0.00041
- GGTCGTGCGC — within error, 0.996 ± 0.029
- GGTCTAGAGT — within error, 1 ± 0.014
- GGTCTAGGCA — within error, 0.987 ± 0.02
- GGTCTGCAGC — within error, 1.003 ± 0.0062
- GGTCTGGGGG — within error, 0.955 ± 0.012
- GGTCTGGGGT — within error, 1.09 ± 0.21
- GGTCTTAACT — within error, 0.967 ± 0.028
- GGTCTTCTTT — within error, 0.994 ± 0.029
- GGTCTTTTTT — within error, 1.02 ± 0.05
- GGTGAAGACC — within error, 0.9598 ± 0.0086
- GGTGACAAAT — within error, 0.9777 ± 0.003
- GGTGACCTTG — within error, 0.9891 ± 0.0037
- GGTGACGCAC — higher, 1.62 ± 0.057
- GGTGAGGGTA — within error, 0.991 ± 0.012
- GGTGAGTCGG — within error, 0.9925 ± 0.0029
- GGTGAGTTAC — within error, 0.98 ± 0.013
- GGTGATAAAT — within error, 0.991 ± 0.025
- GGTGATACGG — within error, 1.012 ± 0.0022
- GGTGATAGTT — within error, 0.994 ± 0.017
- GGTGCAAGCT — within error, 1.019 ± 0.0023
- GGTGCAAGTT — within error, 1.02 ± 0.042
- GGTGCAGGTA — the same, 0.984 ± 0.025
- GGTGCCGTGC — within error, 0.995 ± 0.034
- GGTGCGATTG — within error, 1.07 ± 0.052
- GGTGCGTAGG — within error, 1 ± 0.012
- GGTGCGTTGG — within error, 1.03 ± 0.042
- GGTGCTGGAG — within error, 0.98 ± 0.011
- GGTGGACTTG — within error, 1 ± 0.041
- GGTGGAGGGA — within error, 0.987 ± 0.031
- GGTGGAGGGG — within error, 1 ± 0.0022
- GGTGGATACA — within error, 1.005 ± 0.0036
- GGTGGGAATG — within error, 0.99 ± 0.023
- GGTGGGACAA — within error, 0.966 ± 0.042
- GGTGGGAGAC — within error, 1.01 ± 0.03
- GGTGGGAGCA — within error, 1.04 ± 0.034
- GGTGGGAGGG — within error, 1.008 ± 0.0073
- GGTGGGATTT — within error, 0.9506 ± 0.0055
- GGTGGGGAAA — higher, 1.0255 ± 0.00086
- GGTGGGGAGA — within error, 1.017 ± 0.0086
- GGTGGGGAGT — within error, 1.01 ± 0.021
- GGTGGGGCAG — within error, 0.9643 ± 0.0041
- GGTGGGGCGA — within error, 1.01 ± 0.041
- GGTGGGGGGG — within error, 1 ± 0.036
- GGTGGGGGGT — within error, 0.989 ± 0.029
- GGTGGGTTGT — within error, 1.03 ± 0.076
- GGTGGTAGGA — within error, 0.98 ± 0.041
- GGTGGTAGTT — within error, 1.012 ± 0.003
- GGTGGTGAGC — within error, 1 ± 0.026
